Reference: paper PMC13044922, “Molecular structure and nickel-binding capacity of Proteus mirabilis UreE” (Acta Crystallographica Section D: Structural Biology, 2026)

Target: the molecule itself
Experiment: SEC; HiLoad 16/600 Superdex 75, 20 mM HEPES pH 7.5, 100 mM NaCl with or without 1 mM EDTA, 277 K; elution volume compared with molecular weight

| Protein | stoichiometry N |
| --- | --- |
| Proteus mirabilis UreE (natural protein, Cloned from strain ATCC 12453; In the crystal the models end at residue 147 (chain A) and 144 (chain B); the C-terminal tails are not resolved; also called PmUreE; full-length PmUreE) MKKFTQIIDQQKALELTSTEKPKLTLCLTMDERTKSRLKVALSDGQEAGLFLPRGTVLKEGDILLSEEGDVVTIEAAKEQVSTVYSDDPLLLARVCYHLGNRHVPLQIEAGWCRYFHDHVLDDMARGLGATVVVGLEKYQPEPGAYGGSSGGHHHHHDHHH | ~2 |
| PmUreE-ΔC17 (domain or fragment, UreE of Proteus mirabilis ATCC 12453 with a stop codon inserted after Gly144 (lacks the last 17 residues, the histidine-rich C-terminus); Made from the full-length construct of m1 by a stop codon after Gly144; also called PmUreE-ΔC17 truncation mutant; C-terminally truncated mutant of PmUreE; source: E. coli BL21 (DE3), purified (Ni-NTA, SEC)) MKKFTQIIDQQKALELTSTEKPKLTLCLTMDERTKSRLKVALSDGQEAGLFLPRGTVLKEGDILLSEEGDVVTIEAAKEQVSTVYSDDPLLLARVCYHLGNRHVPLQIEAGWCRYFHDHVLDDMARGLGATVVVGLEKYQPEPG | 2 |
